Assay results: IntAct's records for PubMed 20010802

Molecular target: mlp3a_human MAP1LC3A (UniProt Q9H492)

For “BCL2/adenovirus E1B 19 kDa protein-interacting protein 3-like (Mus musculus), Q9Z2F7 L38A”, the “effect of a mutation on the interaction” value was “disrupting interaction”.
